Experiment: soluble on expression in E. coli; label from the status in PepcDB or PDB records

Sequence	soluble on expression in E. coli
MGSDKIHHHHHHMNEAQQERRRSVRRDLHSYPEPAWREFYTTSRIAEEIERIGVDQLYIGRNVVDGDARMAVPDDDELEDWQRKARDAGAREDVLEAAAGGFTGALAVLEQGEGPTVALRVDIDALPITESDSVAHAPATEEFRSTNEGYMHACGHDAHATIGLGVLEAVKESDFKGTFKVVFQPAEEVIGGGKAVAESGHLDDVDHLLAIHIGLDHPTGEIVAGVGGFLAVRQFEATFTGETAHAGGHPAQGRDAVQALATAVQNLHAIRRHGDGATRVNAGVVEGGTATNIVPGEATLEGEVRGETTPLKEYMSERADTVMSSAAEMHDCEVAIETTAEAPSAVSDDALAGVVYDAADSVPGVTSRLRTDDLGGSEDATYLMDRVQNHGGTATFVGIGTDHPGGHHTPLFDIDEDSLTIGIDVVTEAISQLSG	not soluble
MHTQRAGLSAIVATYRYQLATGVVYRDISSTIATEKIPFVENAVLKERAFIETIKQHQEPQRRIPRPVDSYVMLHSNARITTSRVIPQHKYKVTAKNPCRSIKRNAFQTAPSQTQLFISVNNRWLGLEHHHHHH	not soluble
RGRLRIFFGFAAGVGKTYGMLTEAHELLMMGKHVVVGYIEPHDRPDTNRLLEGLPQIPPKNIFYKQMVLTEPDIDQIIQQKPEIVLIDELAHSNAEGSRNRKRYQDIDELLNAGIDVFTTVNVQHIESLNDIVEEVTGIEVKETVPDTFLRQATIRVIDVEPDELIERLEQGKIYANENAKRALKNFFIPQKLDQLRGLAIQRASDHINRISGKTIG	not soluble
MSLTALQQMTVLFVDDEEIAREQMKMVLSSFCKNTICVGSADQALAALQEHHPDIVLTDIRMPGLSGIELLNAVKQKDASVAVVIVSAHSESEYLLDAFRYKADGYLLKPFNFHEMLELLSDIATQKEAASSERKQGPDNRDFLLKILDTLGGRRAEIMEYVINHLDADNLFHGTYDEVAEALSASKPTVVATFQIMLEKNVLTRLKYGTYRMNVDATEGHHHHHH	soluble
GSHMLEDPLRVSPMIREFVQSIDDREWQTQLFALLQKQTYNQVEVDLFELMCKVLDQNLFSQVDWARNTVFFKDLKVDDQMKLLQHSWSDMLVLDHLHHRIHNGLPDETQLNNGQVFNLMSLGLLGVPQLGDYFNELQNKLQDLKFDMGDYVCMKFLILLNPSVRGIVNRKTVSEGHDNVQAALLDYTLTCYPSVNDKFRGLVNILPEIHAMAVRGEDHLYTKHCAGSAPTQTLLMEMLHAKR	soluble
MCMDRIEKLIKKVSKPARLSVERCRLYTESMKQTEGEPMIIRQAKALKHVLENIPIQILDSELIVGTMLPNPPGAIIFPEGVGLRIINELDSLPNRETNRLMVDEEDAKVLREEIAPYWQRKTIEAFAFPLMPDIMQILYTGSVFVLTEIAGISHVAVNYPYLLRRGFRWFLEESERRIRALEESGVYEGEKYSFYQAAKIVSEAVINYGLRYSKLAEELAESEDGERREELLKIAEICRKVPAEKPETFWEAVQFVWLVQSALHQENYEQAISMGRIDQYLYPFFKKDIGEGRINRELAFDILANLWIKTNEIVPAFDSLLEQYFSGQATNQAVTIGGCDIYGNDATNELTYLMLEVTDRLRLRQPNVHVRINKGSPESFLKRLAEAISSGCNNLALFFDDAAVKALKNAEVDDRDALNYTTDGCVEIAPFGNSFTSSDAALINVAKALEYALNEGVDLQFGYEFGAKTEKPKFLEDLLEKLREQVSHIVKLVVRGSNVLSYANAEVKPTPLLSLCVEDCFEKGVDVSRGGARYNFTGIQAVGIADVGDSLVAIEGALNAGYSMDDIVEACRKNFVGYEKLHKLLLQSPKYGNDDDAADKYTKMVLEWYCEEVNRHRNFRGGKFAAGCYPMTTNVGFGFFTSALPSGRKSGEPLNPGVSPSTGMDREGVTAVINSASKLSYENLPNGASLTINLSSDVLGEKGDAVIEALIKSSMELGVMHVQFNILKEDLLRKAQQEPEKYRWLLVRVAGWSAYFVELSRPVQEEVIRRISCRI	soluble
MPQTDKQVCIPPELPELLKQFTKDAIRTQPPDLIQWAAEYFGAMSRGEIPPVRERSEQIPLSNWAELTPELLKVLHSRVAGRLIIHADELAQMWKVLNLPTDLFNSVMNVGRFTEEIEWLKFLALACSSLGVTIAKTLKIVCEVLSSDHDGGPPRIPFSTFQFLYTYIAEVDGEISSSHVSRMLNYIEQEVIGPDGLIKVNDFTQNPRVRLE	not soluble
MSYPATRAEQVVDTLHGVQVADPYRWLEDEKAPEVQTWMTAQNAHAREALAKFPGREALAARFKELFYTDSVSTPSRRNGRFFYVRTHKDKEKAILYWRQGESGQEKVLLDPNGWSKDGTVSLGTWAVSWDGKKVAFAQKPNAADEAVLHVIDVDSGEWSKVDVIEGGKYATPKWTPDSKGFYYEWLPTDPSIKVDERPGYTTIRYHTLGTEPSKDTVVHERTGDPTTFLQSDLSRDGKYLFVYILRGWSENDVYWKRPGEKDFRLLVKGVGAKYEVHAWKDRFYVLTDEGAPRQRVFEVDPAKPARASWKEIVPEDSSASLLSVSIVGGHLSLEYLKDATSEVRVATLKGKPVRTVQLPGVGAASNLMGLEDLDDAYYVFTSFTTPRQIYKTSVSTGKSELWAKVDVPMNPEQYQVEQVFYASKDGTKVPMFVVHRKDLKRDGNAPTLLYGYGGFNVNMEANFRSSILPWLDAGGVYAVANLRGGGEYGKAWHDAGRLDKKQNVFDDFHAAAEYLVQQKYTQPKRLAIYGGSNGGLLVGAAMTQRPELYGAVVCAVPLLDMVRYHLFGSGRTWIPEYGTAEKPEDFKTLHAYSPYHHVRPDVRYPALLMMAADHDDRVDPMHARKFVAAVQNSPGNPATALLRIEANAGHGGADQVAKAIESSVDLYSFLFQVLDVQGAQGGVAAQGRHHHHHH	soluble
METHEKIRLMRELNKWSQEDMAEKLAMSAGGYAKIERGETQLNIPRLEQLAQIFKIDMWDLLKSGGGGMVFQINEGDSGGDIALYASGDVSMKIEFLKMELKHCKEMLEQKDKEIELLRKLTETV	not soluble
SELFTLGACRQVGKSCFVLKTSEGLVMLDCGLHPSYQDDRRYPNFSLAFSYGPLKAVFITHCHADHVGALPILTERWGYDGPIYMSEPTRKLSYYILEECVGSWGGDDEWTDSSRSEWSYTQREVESCLTKCIVGWLDMCWVLTCLASS	soluble
MSLKKLTVAALAVTTLLSGSAFAHEAGEFFMRAGSATVRPTEGAGGTLGSLGGFSVTNNTQLGLTFTYMATDNIGVELLAATPFRHKIGTRATGDIATVHHLPPTLMAQWYFGDASSKFRPYVGAGINYTTFFDNGFNDHGKEAGLSDLSLKDSWGAAGQVGVDYLINRDWLVNMSVWYMDIDTTANYKLGGAQQHDSVRLDPWVFMFSAGYRFEGGSHHHHHH	soluble
MPNSSIQIWLQRQIALRTFPPNREDWYVKNGFGNSEMSLEERFASFVEAIRQEDSPYHEQLSGIDFQRFEIEVTLANQKTCMTEVIGFQNNSNQSSSTPNEKFKAVGKGKHVIYFTGIGTQYQDCLIDIAKAVQITGAHYYAFEYPGMRKLGGEVLEVNDMVNTGIALANTLLEKGISIDDILFQGDSFGAAVAKKVSDQFKLQSNVTVRCILNNTFSTFQAAVEGNLGAFSTLRYTVRPLLRYTGWDIRPGEGYGQDTPYQIHVNHTGDLTLGAGHATLAESIESNSQLEHFVDPCPEEYRIKRDIYKQWHWASLSEQGITFLETKYGRNSDGQLDTHLADLYLLKYDTGLGVYESFICKYLEDSNDYIASHPQKLSLDELPRPLESETVSLRQLIVSVLPSRPSIAGFFSRSTPVIEEVETEKQEQKSIELK	soluble
QVIEVLNKQVADWSVLFTKLHNFHWYVKGPQFFTLHEKFEELYTESATHIDEIAERILAIGGKPVATMKEYLEISSIQEAAYGETAEGMVEAIMKDYEMMLVELKKGMEIAQNSDDEMTSDLLLGIYTELEKHAWMLRAFLN	soluble
MWKITENLYLAQLPMIVGPTSKQEFSKNDIKRVLTLTTEPISEKQKIGGVDYKFLHLLDMPDEPILDNAILETAVLYINEGVEKEENVGVHCLAAVSRSVSICAAYLMYKNQWPVEKALKMIESVRKTIGPNAGFLAQLKIWERSGMSFSADQYKNLKIDIPGITCVDSKTIWRQPVIDDQTKVRFKCRQCRKVIFNSDNIVHPLAEACQKYLIEPMAWLNVSGATCSVSHTCGAKLGTFIASGSKCNGCNKFVRQWIFINRTKLDKVEIAT	not soluble
MSKKSQIIETATRLFAEHGFENTPVSLICEEAEVSKGAVFHHFKNKNDILREVFIHITTIIEETDKNDVHLATQEDPLEAAIHEIFDGMSVAKYRKMYQFNFSVMVHPTTRAIVADLIEDRYQQLQTSAEEIFRAVGYSNPVVITKMFIAEIDGIAMNYLLNNDFPLMDIKQEFIKKYCQ	not soluble
MERSLYSPDLRIPPANIHNNHLKIDTDRKIRFAITHPEIKKAKGTIVILESYANALEEYFLPMNEISNRGFYTAIFDWFGREESQPDKQKQSRYNYFNINNDINDLNEFLKNIVYCNCPPPYYMLTYGMGGLIALSGLDLINHKFNKMLCISPLFAPFGNKTNSFQHKLTQLLSDIGLGFLPAKGGEKLKQKSTQFMRINEAALSSDFLIKRPTSRWMASVLNAIDSVKKNILNGHLEIPTLFILANQNNIANNIEIRQLCQYTHLTDSITITGAELDTIMHEESYQKQFWIAFDAFIRG	not soluble
MKTLTDTDHIHTLIAEGEHQQQDFKFEISDARKIAKTLSAFANTDGGRLLIGVKDNGRIAGVRSEEEKYMIEAAAQLYCIPEIDYTLQTYIVEGKQVLVATIEENPHKPVYAKDENGKPLAYLRIKDENILATPIHLRVWQQSGSPRGELIRYTEREQLLLDLLEQGTLLSLNRYCRQTGISRRAAEHLLAKFVRYDIVEPVFENHKFYFRMKNELEHHHHHH	soluble
ARFYSDGLKLAGTLFVPDDYEPGQKRPAVLICHGRFAIKEWVPSRWTPHFLAAGYVCMVFDYRNLGESEGTPGRIIPDEEVRDARHALTYLQCQPEVDPARIGALGWGLGGGVAVSAAAHDARIKAVVCAIGVANGGRYGRVGMSDAAWAARQEQIAADRRERVLTGRSARLPRTEILGRPDAQRAERHERQNWIDSLVAAVGPERAADPAKLGIPDEITLESMEALYDFAPDAVVDRIAPRPLLIVHARDDHEFPFEHAADMYERAAQPKQLIAVEDAGHLDWIDPAHPSQQVYVPQVVAWMQAQL	not soluble
MSLGIRIGDGCIFRDPLTTRIDVSRPALVSIGSNVDMNTYFQILTHDWASFVFRNKYHDFVNSSGRVEIGSNIYIGTNVIVLRGVTIGDNCVIGAGSVVTHDIPANSVAVGAPCRVVCSLDEYYQKRKVKGLQEAVEHVKAFQKNFGRDPLPHELYEEFIYFVDASNVEEYERQGVPVRSQLSIAYGDWLSTHKAKFSSYDDFIQYVNQKMNETLEHHHHHH	not soluble
MSLTKLIVICGATATGKSGLALNLAMRLGSVILSADSRQVYREFDIGTAKPTLAEQRAVPHYLIDICAPRETMTVADYQEQAQALINSLPVSPLLLVGGTGLYIRSIVQGMKIPRVAPNYELRSQLASLGQTTLYGILQQVDPIAAQKIHPNDPVRTLRAVEVFYITGIPISAQQGENPPDYPILQIGLDCEMERLTERIHKRTEQMITDGLVGEVEYLCQKYGAELPLLNTLGYQEIKQYLTGEISLEAAKELTVLHTRQFAKRQRTWFRASPQIEWFNADHPDLLDIVCQHIQQPEGHHHHHH	soluble
MGSDKIHHHHHHAKSEMAFAGKGEISPRAITMWDFSWLERRWPGAGYEDWDQVLDELSERGYNAIRIDAYPHLIAENPMKKWLLKEVWNQQDWGSPDMNEVQVQPNLNLFLSKCKERDIKVGLSSWYRLDVDEVCLKLDTPEKLADCWLTILRSIEEDGLLDTILYVDLCNEWPGDSWAPFFAKTYPNVGWGNWYKEESLRWMKTSLEKMRQVYPDMPFLYSFDHGDVKKYEEVDCSFLDLYEHHIWMAQQNGGEFYKLVGYGYNRFLPDDYKNVVKNAERVYRERPGYWQKLLTDKIELMASVARKNRRPLVTTECWGLVDYKDWPLLKWDWVKDLCELGTITAARTGMWVGVATSNFCGPQFAGMWRDVEWHKRLTSIIRSSPLDESLTKNNEVAAKLLKRL	not soluble
